According to publication PMC6048534:
pKd: −log10 of the molar value.

Columns and labels:
[1] = target: CofB (minor pilin of CFA/III without its N-terminal 28 residues; homotrimer) (enterotoxigenic Escherichia coli (ETEC)); test: ITC
[2] = target: CofB (minor pilin of CFA/III without its N-terminal 28 residues; homotrimer) (enterotoxigenic Escherichia coli (ETEC)); test: AUC

Substance: CofJ (1–24) peptide (synthesized peptide consisting of CofJ residues 1–24)
- pKd [1]: 5.06

Substance: CofJ (intact recombinant secreted protein of the CFA/III operon) (natural protein)
- pKd [1]: 6.85
- stoichiometry N (CofJ per three CofB molecules) [2]: 1

Substance: CofB (minor pilin of CFA/III without its N-terminal 28 residues; homotrimer) (domain or fragment)
- stoichiometry N [2]: 3

Substance: CofJ (4–16) peptide (synthetic 13-residue peptide comprising CofJ residues 4–16)
- pKd [1]: 5.32
